# B1: Protein ecdysoneless homolog (Homo sapiens), O95905 (parent)
# chain: MEETMKLATMEDTVEYCLFLIPDESRDSDKHKEILQKYIERIITRFAPMLVPYIWQNQPFNLKYKPGKGGVPAHMFGVTKFGDNIEDEWFIVYVIKQITKEFPELVARIEDNDGEFLLIEAADFLPKWLDPENSTNRVFFCHGELCIIPAPRKSGAESWLPTTPPTIPQALNIITAHSEKILASESIRAAVNRRIRGYPEKIQASLHRAHCFLPAGIVAVLKQRPRLVAAAVQAFYLRDPIDLRACRVFKTFLPETRIMTSVTFTKCLYAQLVQQRFVPDRRSGYRLPPPSDPQYRAHELGMKLAHGFEILCSKCSPHFSDCKKSLVTASPLWASFLESLKKNDYFKGLIEGSAQYRERLEMAENYFQLSVDWPESSLAMSPGEEILTLLQTIPFDIEDLKKEAANLPPEDDDQWLDLSPDQLDQLLQEAVGKKESESVSKEEKEQNYDLTEVSESMKAFISKVSTHKGAELPREPSEAPITFDADSFLNYFDKILGPRPNESDSDDLDDEDFECLDSDDDLDFETHEPGEEASLKGTLDNLKSYMAQMDQELAHTCISKSFTTRNQVEPVSQTTDNNSDEEDSGTGESVMAPVDVDLNLVSNILESYSSQAGLAGPASNLLQSMGVQLPDNTDHRPTSKPTKN
# Variants of: B1
# Conditions: with pihd1_human PIH1D1, Q9NWS0
# pihd1_human PIH1D1, Q9NWS0, sequence (Q9NWS0 whole entry): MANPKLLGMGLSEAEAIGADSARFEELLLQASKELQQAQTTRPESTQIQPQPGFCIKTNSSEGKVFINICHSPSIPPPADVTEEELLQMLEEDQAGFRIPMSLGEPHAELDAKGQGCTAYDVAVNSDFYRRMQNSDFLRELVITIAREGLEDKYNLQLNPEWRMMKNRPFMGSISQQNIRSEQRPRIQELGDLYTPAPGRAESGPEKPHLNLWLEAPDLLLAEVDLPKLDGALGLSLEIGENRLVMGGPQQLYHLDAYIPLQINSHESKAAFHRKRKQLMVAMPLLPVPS
row,Variant,effect of a mutation on the interaction
1,S503A;S505A;S518A;S572A;S579A;S584A,disrupting interaction
2,S503A;S505A;S518A,disrupting interaction
3,S503D;S505D;S518D;S572D;S579D;S584D,disrupting interaction
